Measured values reported in publication PMC3520970 (PLoS ONE, 2012).
Substitutions are numbered along the chain they refer to. Names may count otherwise.

T1: His-Myc-tagged MOD (maize, UniProt P25891 17-286, Δ163–164 | Δ167–189, labelled with the crosslinker NHS-SS-Diazirine (SDAD))
T1 construct: source: E. coli BL21(DE3)pLysS, purified (HisTrap); not shown: Myc, C-terminal, kept
T1 sequence: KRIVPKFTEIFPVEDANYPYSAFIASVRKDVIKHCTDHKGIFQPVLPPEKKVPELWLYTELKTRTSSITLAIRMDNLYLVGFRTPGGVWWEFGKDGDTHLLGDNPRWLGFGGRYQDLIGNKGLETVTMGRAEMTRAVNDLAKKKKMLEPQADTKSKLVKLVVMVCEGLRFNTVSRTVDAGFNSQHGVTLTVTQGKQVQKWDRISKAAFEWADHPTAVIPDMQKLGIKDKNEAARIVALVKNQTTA

B1: Maize [Δ1–16, Δ287–300]-Pro-RIP (enzyme)
chain: KRIVPKFTEIFPVEDANYPYSAFIASVRKDVIKHCTDHKGIFQPVLPPEKKVPELWLYTELKTRTSSITLAIRMDNLYLVGFRTPGGVWWEFGKDGDTHLLGDNPRWLGFGGRYQDLIGNKGLETVTMGRAEMTRAVNDLAKKKKMATLEEEEVQMQMQMPEAADLAAAAAADPQADTKSKLVKLVVMVCEGLRFNTVSRTVDAGFNSQHGVTLTVTQGKQVQKWDRISKAAFEWADHPTAVIPDMQKLGIKDKNEAARIVALVKNQTTA
B2: Maize [Δ1–16, Δ163–164, Δ167–189, Δ287–300]-Pro-RIP (enzyme)
chain: T1 sequence
B3: MOD [K158A-K161A] (enzyme)
chain: T1 sequence with K142A, K143A, K144A, K145A
B4: P2 on rat liver ribosome (natural protein, rat (endogenous in rat liver ribosome), UniProt P02401 1-115, looked up)
chain: MRYVASYLLAALGGNSNPSAKDIKKILDSVGIEADDERLNKVISELNGKNIEDVIAQGVGKLASVPAGGAVAVSAAPGSAAPAAGSAPAAAEEKKDEKKEESEESDDDMGFGLFD
notes: also called P-protein P2

Legend:
Ribosomal protein P2 [1] = molecular target: Ribosomal protein P2 (UniProt P05387); assay: SPR; BIAcore 3000; P2 amine-coupled to CM5 chip (1300 RU); RIPs injected at 30 µl/min in 20 mM Tris, 30 mM NaCl, 0.005% Tween 20, pH 7.4; KD from RU at equilibrium
Ribosomal protein P2 [2] = molecular target: Ribosomal protein P2 (UniProt P05387)
[3] = molecular target: P2 on rat liver ribosome (rat (endogenous in rat liver ribosome)) (UniProt P02401); conditions: scale: arbitrary
P2 on rat liver ribosome = molecular target: B4; assay: cell-based or functional assay
Ribosomal protein P2 [4] = molecular target: Ribosomal protein P2 (UniProt P05387 1-115); assay: cell-based or functional assay
His-Myc-tagged MOD = molecular target: T1, His-Myc-tagged MOD; assay: cross-linking; SDAD-labelled Myc-MOD (90 µM) with rat liver ribosome (0.8 µM) in PBS, room temperature 30 minutes, UV 365 nm for an hour; western blot with anti-Myc and anti-P; conditions: both partners purified

| Molecule | N-glycosidase activity on rat liver ribosome, folds increased to untreated (P2 on rat liver ribosome) | relative N-glycosidase activity on rat liver ribosome (5 nM RIP, qPCR) (P2 on rat liver ribosome) | also measured |
| --- | --- | --- | --- |
| Trichosanthin (enzyme) | – | – | Kd (Ribosomal protein P2 [1]): 612 µM; cytotoxicity to 293T cells (MTT, 72 hours), EC50 (Ribosomal protein P2 [2]): 0.63 µM; relative N-glycosidase activity on rat liver ribosome (5 nM RIP, qPCR) [3]: 2610 |
| B1 | 1.59 fold | 6.06 arbitrary (ratio multiplied by an arbitrary factor) | – |
| B2 | 14.3 fold | 54.3 arbitrary (ratio multiplied by an arbitrary factor) | cytotoxicity to 293T cells (MTT, 72 hours), IC50 (also called EC50) (Ribosomal protein P2 [4]): 7.88 µM |
| B3 | 0.85 fold | 3.24 arbitrary (ratio multiplied by an arbitrary factor) | – |
| B4 | – | – | binding result (His-Myc-tagged MOD): binds |
